# Test results reported in patent US11433099B2, “Immunotherapy with B*08 restricted peptides and combination of peptides against cancers and related methods” (Immatics Biotechnologies GmbH, priority 2018, dated 2022).
# Target: HLA-B*08:01 (Homo sapiens, UniProt P01889)
# Experiment: MHC binding assay (UV-ligand exchange, beta2m ELISA)
# Settings: MHC class I binding score; binding to HLA-B*08:01 ranged by peptide exchange yield (UV-ligand exchange, β2m ELISA)
# Description: Candidate peptides for T cell based therapies according to the present invention were further tested for their MHC binding capacity (affinity). The individual peptide-MHC complexes were produced by UV-ligand exchange, where a UV-sensitive peptide is cleaved upon UV-irradiation and exchanged with the peptide of interest as analyzed. Only peptide candidates that can effectively bind and stabilize the peptide-receptive MHC molecules prevent dissociation of the MHC complexes. To determine the yield of the exchange reaction, an ELISA was performed based on the detection of the light chain (β2m) of stabilized MHC complexes. The assay was performed as generally described in Rodenko et al. (Rodenko et al., 2006).
# 96 well MAXISorp plates (NUNC) were coated over night with 2 ug/ml streptavidin in PBS at room temperature, washed 4× and blocked for 1 h at 37° C. in 2% BSA containing blocking buffer. Refolded HLA-A*02:01/MLA-001 monomers served as standards, covering the range of 15-500 ng/ml. Peptide-MHC monomers of the UV-exchange reaction were diluted 100-fold in blocking buffer. Samples were incubated for 1 h at 37° C., washed four times, incubated with 2 ug/ml HRP conjugated anti-β2m for 1 h at 37° C., washed again and detected with TMB solution that is stopped with […]. Absorption was measured at 450 nm. Candidate peptides that show a high exchange yield (preferably higher than 50%, most preferred higher than 75%) are generally preferred for a generation and production of antibodies or fragments thereof, and/or T cell receptors or fragments thereof, as they show sufficient avidity to the MHC molecules and prevent dissociation of the MHC complexes.
row,Substance,Peptide exchange
1,144 (IEQIRAVL; listed as Homo sapiens) [compound 144],++ (20% = ++)
2,145 (MIYRKALRL; listed as Homo sapiens) [compound 145],++ (20% = ++)
3,148 (DVNPVSLQL; listed as Homo sapiens) [compound 148],++ (20% = ++)
4,149 (TQKSVQVL; listed as Homo sapiens) [compound 149],++ (20% = ++)
5,150 (MRSSYIREL; listed as Homo sapiens) [compound 150],++ (20% = ++)
6,152 (FNKLVTEL; listed as Homo sapiens) [compound 152],++ (20% = ++)
7,153 (HAIPHYVTM; listed as Homo sapiens) [compound 153],++ (20% = ++)
8,154 (VLKTLQEL; listed as Homo sapiens) [compound 154],++ (20% = ++)
9,156 (ILKEQSSSSF; listed as Homo sapiens) [compound 156],++ (20% = ++)
10,160 (LPINNTHI; listed as Homo sapiens) [compound 160],++ (20% = ++)
11,162 (LFKQTKINL; listed as Homo sapiens) [compound 162],++ (20% = ++)
12,163 (EVMAQFKEI; listed as Homo sapiens) [compound 163],++ (20% = ++)
13,167 (DMKITVSL; listed as Homo sapiens) [compound 167],+++ (50% = +++)
14,168 (HVQDFTAF; listed as Homo sapiens) [compound 168],++ (20% = ++)
15,173 (YPLLKDPSL; listed as Homo sapiens) [compound 173],+++ (50% = +++)
16,175 (MRFQQFLFA; listed as Homo sapiens) [compound 175],+ (0% = +)
17,176 (YVIQRQSVL; listed as Homo sapiens) [compound 176],++ (20% = ++)
18,178 (IPRLAVISI; listed as Homo sapiens) [compound 178],++ (20% = ++)

row,Substance,Peptide exchange
1,179 (LPLTEHEL; listed as Homo sapiens) [compound 179],+++ (50% = +++)
2,180 (LAVPIFVAL; listed as Homo sapiens) [compound 180],++ (20% = ++)
3,183 (YVSKPGAQL; listed as Homo sapiens) [compound 183],++ (20% = ++)
4,185 (MELKTVKPI; listed as Homo sapiens) [compound 185],++ (20% = ++)
5,187 (VPYNSVLF; listed as Homo sapiens) [compound 187],++ (20% = ++)
6,188 (EIMEKTTL; listed as Homo sapiens) [compound 188],++ (20% = ++)
7,189 (APDNVLLTL; listed as Homo sapiens) [compound 189],++ (20% = ++)
8,190 (ELLNRIYF; listed as Homo sapiens) [compound 190],++ (20% = ++)
9,192 (EEKHFTTL; listed as Homo sapiens) [compound 192],++ (20% = ++)
10,193 (LGGLRLTAL; listed as Homo sapiens) [compound 193],++ (20% = ++)
11,194 (RAIEHVLQV; listed as Homo sapiens) [compound 194],+++ (50% = +++)
12,196 (LDLRQKVL; listed as Homo sapiens) [compound 196],++ (20% = ++)
13,197 (YKAYPSQL; listed as Homo sapiens) [compound 197],++ (20% = ++)
14,198 (FPLTSIIAI; listed as Homo sapiens) [compound 198],+++ (50% = +++)
15,199 (IPFIHLPEI; listed as Homo sapiens) [compound 199],++ (20% = ++)
16,200 (VAAARAVPV; listed as Homo sapiens) [compound 200],++ (20% = ++)
17,202 (RIPEKASFL; listed as Homo sapiens) [compound 202],++ (20% = ++)
18,203 (DVYTQVSAF; listed as Homo sapiens) [compound 203],++ (20% = ++)

# Further lines, results first:
row,Peptide exchange,Substance
1,+++ (50% = +++),146 (FQTAHFYL; listed as Homo sapiens) [compound 146]
2,++ (20% = ++),147 (HAMDGASHL; listed as Homo sapiens) [compound 147]
3,++ (20% = ++),151 (DRHLTNRVL; listed as Homo sapiens) [compound 151]
4,++ (20% = ++),155 (LPASFPAVL; listed as Homo sapiens) [compound 155]
5,++ (20% = ++),157 (QPYRFPQA; listed as Homo sapiens) [compound 157]
6,++ (20% = ++),158 (DVIIKGNGL; listed as Homo sapiens) [compound 158]
7,++ (20% = ++),159 (DLRNKIIA; listed as Homo sapiens) [compound 159]
8,++ (20% = ++),161 (DIVPPFSAF; listed as Homo sapiens) [compound 161]
9,++ (20% = ++),164 (LPAPIPTLL; listed as Homo sapiens) [compound 164]
10,++ (20% = ++),165 (QNSLRHNL; listed as Homo sapiens) [compound 165]
11,++ (20% = ++),166 (VLSGGRILAL; listed as Homo sapiens) [compound 166]
12,++ (20% = ++),169 (YELNNLHAL; listed as Homo sapiens) [compound 169]
13,++ (20% = ++),170 (SPANVRGQSL; listed as Homo sapiens) [compound 170]
14,++ (20% = ++),171 (FPSQVPKQVL; listed as Homo sapiens) [compound 171]
15,++ (20% = ++),172 (PYEKVSRL; listed as Homo sapiens) [compound 172]
16,++ (20% = ++),174 (HAMPSPRIL; listed as Homo sapiens) [compound 174]
17,++ (20% = ++),177 (SVPVRSSPL; listed as Homo sapiens) [compound 177]
18,++ (20% = ++),181 (SIRSSYSRF; listed as Homo sapiens) [compound 181]
19,++++ (75% = ++++),182 (ILHLSAIAL; listed as Homo sapiens) [compound 182]
20,++ (20% = ++),184 (DRLKPLKM; listed as Homo sapiens) [compound 184]
21,++ (20% = ++),186 (DLISPRQPRL; listed as Homo sapiens) [compound 186]
22,++ (20% = ++),191 (RPLKPGEVL; listed as Homo sapiens) [compound 191]
23,++ (20% = ++),195 (EGNQKSVI; listed as Homo sapiens) [compound 195]
24,+++ (50% = +++),201 (TASAMQHVL; listed as Homo sapiens) [compound 201]
25,++ (20% = ++),204 (MSPLLRSI; listed as Homo sapiens) [compound 204]
